Measurements: patent publication US20250051413A1 (ASKGENE PHARMA, published 2025)

Molecular target: human IL-12 receptor (b1 and b2 chain) (human, UniProt P42701 24-662; Q99665 24-862)
Test: cell-based or functional assay

human IL-12 receptor (b1 and b2 chain), sequence (Q99665 24-862, chain 2 of 2, other chains not shown): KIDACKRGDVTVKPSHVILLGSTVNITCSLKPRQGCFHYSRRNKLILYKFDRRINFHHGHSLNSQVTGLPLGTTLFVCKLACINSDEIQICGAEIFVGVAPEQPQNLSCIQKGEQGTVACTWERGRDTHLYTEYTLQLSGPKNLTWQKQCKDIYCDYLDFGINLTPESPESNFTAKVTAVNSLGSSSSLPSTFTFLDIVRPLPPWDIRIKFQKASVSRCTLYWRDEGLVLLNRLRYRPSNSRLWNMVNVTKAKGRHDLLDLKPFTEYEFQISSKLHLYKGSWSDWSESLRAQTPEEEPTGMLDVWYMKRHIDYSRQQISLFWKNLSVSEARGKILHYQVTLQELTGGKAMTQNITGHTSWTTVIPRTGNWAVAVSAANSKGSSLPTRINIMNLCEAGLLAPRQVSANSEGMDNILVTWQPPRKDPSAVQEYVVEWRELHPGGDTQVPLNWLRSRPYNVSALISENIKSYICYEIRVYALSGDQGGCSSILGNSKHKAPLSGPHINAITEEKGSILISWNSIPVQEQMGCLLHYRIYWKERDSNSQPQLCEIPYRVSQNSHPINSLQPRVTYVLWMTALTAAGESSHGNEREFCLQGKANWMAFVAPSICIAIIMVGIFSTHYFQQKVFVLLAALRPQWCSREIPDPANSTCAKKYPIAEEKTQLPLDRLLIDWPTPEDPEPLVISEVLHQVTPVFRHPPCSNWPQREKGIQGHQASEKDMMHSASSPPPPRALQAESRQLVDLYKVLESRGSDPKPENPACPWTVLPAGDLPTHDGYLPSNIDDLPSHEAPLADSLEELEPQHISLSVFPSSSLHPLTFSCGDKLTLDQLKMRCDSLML

EC50 of p-STAT4 induction in human PBMC, CD4+ T cells: 2.52 nM | EC50 of p-STAT4 induction in human PBMC, CD8+ T cells: 2.09 nM | EC50 of p-STAT4 induction in human PBMC, NK cells: 3.75 nM | fold decrease in cytokine releasing assay with human PBMC, activity relative to IL-12: ~1000 times
B1: ASKG129C (Fc fusion)
chain 1: QVQLVQSGVEVKKPGASVKVSCKASGYTFTNYYMYWVRQAPGQGLEWMGGINPSNGGTNFNEKFKNRVTLTTDSSTTTAYMELKSLQFDDTAVYYCARRDYRFDMGFDYWGQGTTVTVSSASTKGPSVFPLAPSSKSTSGGTAALGCLVKDYFPEPVTVSWNSGALTSGVHTFPAVLQSSGLYSLSSVVTVPSSSLGTQTYICNVNHKPSNTKVDKKAEPKSCDKTHTCPPCPAPEAAGAPSVFLFPPKPKDTLYITREPEVTCVVVDVSHEDPEVKFNWYVDGVEVHNAKTKPREEQYNSTYRVVSVLTVLHQDWLNGKEYKCKVSNKALPAPIEKTISKAKGQPREPQVYTLPPSREEMTKNQVSLTCLVKGFYPSDIAVEWESNGQPENNYKTTPPVLDSDGSFFLYSKLTVDKSRWQQGNVFSCSVMHEALHNHYTQKSLSLSPGGGGSGGGGSAAGGGGSGGGGSDIQMTQSPSSLSASVGDRVTITCRASQGISSWLAWYQQKPEKAPKSLIYAASSLQSGVPSRFSGSGSGTDFTLTISSLQPEDFATYYCQQYNIYPYTFGQGTKLEIKSGGGGSGGGGSGGGGSEVQLVQSGAEVKKPGESLKISCKGSGYSFTTYWLGWVRQMPGKGLDWIGIMSPVDSDIRYSPSFQGQVTMSVDKSITTAYLQWNSLKASDTAMYYCARRRPGQGYFDFWGQGTLVTVSS
chain 2: EVQLVESGGGLVQPGGSLRLSCAASGYTVSSYCMGWFRQAPGKGREGVSAIDSDGSVSYADSVKGRFTISKDNSKNTLYLQMNSLRAEDTAVYFCAADLCWVDQDQGEYNTWGQGTLVTVSSGSEPKSSDKTHTCPPCPAPEAAGGPSVFLFPPKPKDTLYITREPEVTCVVVDVSHEDPEVKFNWYVDGVEVHNAKTKPREEQYNSTYRVVSVLTVLHQDWLNGKEYKCKVSNKALPAPIEKTISKAKGQPREPQVYTLPPSREEMTKNQVSLTCLVKGFYPSDIAVEWESNGQPENNYKTTPPVLDSDGSFFLYSKLTVDKSRWQQGNVFSCSVMHEALHNHYTQKSLSLSPGGGGSGGGGSAAGGGGSGGGGSDIQMTQSPSSLSASVGDRVTITCRASQGISSWLAWYQQKPEKAPKSLIYAASSLQSGVPSRFSGSGSGTDFTLTISSLQPEDFATYYCQQYNIYPYTFGQGTKLEIKSGGGGSGGGGSGGGGSEVQLVQSGAEVKKPGESLKISCKGSGYSFTTYWLGWVRQMPGKGLDWIGIMSPVDSDIRYSPSFQGQVTMSVDKSITTAYLQWNSLKASDTAMYYCARRRPGQGYFDFWGQGTLVTVSS
